Measurements: patent US6562587 (ASTRA PHARMA, dated 2003)
Non-standard residues stand in square brackets, D forms with d. No end group written: not given here.

B1: Tyr-D-Thr-Gly-Phe-Leu-Thr (DTLET), labelled with tritium (peptide)
peptide: Y[dT]GFLT
modifications: not fully specified
notes: Synthetic delta-selective enkephalin analogue used as the radioligand; also called ^3H-DTLET

Columns and labels:
[1] = target: delta opioid receptor naturally expressed by NG 108-15 cells (UniProt P32300); assay: Table 1, NG 108-15 column (method not described)
[2] = target: T1, K56 receptor (mouse delta opioid receptor encoded by clone K56) (mouse, UniProt P32300 1-372); assay: radioligand binding, 1 nM ^3H-DTLET on monolayer Cos-1 cells transfected with K56
T1 construct: Expressed transiently in Cos-1 cells from plasmid pCDM8-K56; 371 amino acids; also called K56 protein; Cos K56

Row | Molecule | PKi [1] | signal over background [2]
1 | cyclic [D-penicillamine^2, D-penicillamine^5]-enkephalin (peptide) | 8.3 | 
2 | B1 |  | 6 fold
